How the values were obtained:
[1] = molecular target: T1, NOD2ΔLRR (residues 1-619), MBP tag cleaved (human, UniProt Q9HC29 1-619); test: immuno-gold labelling with negative-stain EM; purified NOD2ΔLRR mixed with a 50-fold excess of MBP-RIP2CARD, polymerization induced by TEV; rabbit anti-NOD2 and gold-conjugated anti-rabbit; details: both partners purified
T1 construct: NOD2 (nucleotide oligomerization domain 2), human, CARDS and NOD without the LRR domain, residues 1-619; A less aggregated SEC fraction was used; the protein forms soluble aggregates; also called MBP-NOD2ΔLRR before cleavage; source: sf21 insect cells (baculovirus), purified (amylose resin, TEV cleavage, size exclusion chromatography); not shown: MBP, N-terminal, cleaved
T1 sequence (Q9HC29 1-619, stated change not applied): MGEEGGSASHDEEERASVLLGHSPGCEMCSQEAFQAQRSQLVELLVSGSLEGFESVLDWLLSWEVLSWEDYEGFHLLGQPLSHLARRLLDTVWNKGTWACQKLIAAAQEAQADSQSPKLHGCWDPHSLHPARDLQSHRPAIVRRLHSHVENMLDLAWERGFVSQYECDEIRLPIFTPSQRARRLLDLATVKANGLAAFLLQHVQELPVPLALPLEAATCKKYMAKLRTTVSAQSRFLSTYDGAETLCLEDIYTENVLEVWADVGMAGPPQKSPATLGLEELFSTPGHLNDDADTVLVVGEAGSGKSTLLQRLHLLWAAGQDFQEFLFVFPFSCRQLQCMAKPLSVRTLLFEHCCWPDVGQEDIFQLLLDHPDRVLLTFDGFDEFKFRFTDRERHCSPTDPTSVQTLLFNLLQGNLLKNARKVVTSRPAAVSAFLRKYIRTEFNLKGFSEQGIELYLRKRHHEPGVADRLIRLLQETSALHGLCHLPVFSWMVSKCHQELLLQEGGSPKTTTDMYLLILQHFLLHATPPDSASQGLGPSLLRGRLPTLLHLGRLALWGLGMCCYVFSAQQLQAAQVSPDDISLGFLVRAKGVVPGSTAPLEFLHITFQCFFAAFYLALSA

[2] = molecular target: the molecule itself; test: negative-stain EM; void-volume fraction of size-exclusion chromatography after cleavage of the MBP tag by TEV
[3] = molecular target: the molecule itself; test: cryo-EM structure; helical reconstruction of NOD2CARDS^s-RIP2CARD filaments, filament ends left out; 3.94 Å
[4] = molecular target: the molecule itself; test: negative-stain EM; amylose eluate (with co-purified NOD2CARDS^s) at 2.5 mg ml^−1, polymerization stimulated by proteases for 4 h at room temperature

Binder | binding result [4] | further results
RIP2CARD (residues 435-540), MBP tag cleaved (domain or fragment, human, UniProt O43353 435-540, looked up, RIP2 CARD domain, human, residues 435-540; Isotope-labelled for solid-state NMR; also called RIP2CARD VV; RIP2CARD filament; source: E. coli Rosetta 2 (BL21 star for NMR), purified (amylose resin), MBP cleaved by TEV; not shown: MBP, N-terminal, cleaved) IAQQWIQSKREDIVNQMTEACLNQSLDALLSRDLIMKEDYELVSTKPTRTSKVRQLLDTTDIQGEEFAKVIVQKLKDNKQMGLQPYPEILVVSRSPSLNLLQNKSM |  | binding result [1]: binds; binding result [2]: binds
RIP2CARD (residues 431-540), wild type, HIS-MBP tag cleaved (domain or fragment, human, UniProt O43353 431-540, looked up, RIP2 CARD domain, human, residues 431-540; The atomic model of the filament comprises residues P433 to Q518; also called RIP2CARD filament; NOD2CARDS^s-WT; source: E. coli Rosetta 2, purified (amylose resin, Superose6), HIS-MBP cleaved by P3C, Ni-NTA, dialysis; not shown: His, N-terminal, cleaved; MBP, N-terminal, cleaved) LQPGIAQQWIQSKREDIVNQMTEACLNQSLDALLSRDLIMKEDYELVSTKPTRTSKVRQLLDTTDIQGEEFAKVIVQKLKDNKQMGLQPYPEILVVSRSPSLNLLQNKSM |  | binding result [3]: binds
RIP2CARD (431-540) C455A, HIS-MBP tag cleaved (domain or fragment, human, UniProt O43353 431-540, looked up, RIP2 CARD domain, human, residues 431-540; source: E. coli Rosetta 2, co-purified with NOD2CARDS^s on amylose resin, tags cleaved by proteases; not shown: His, N-terminal, cleaved; MBP, N-terminal, cleaved) LQPGIAQQWIQSKREDIVNQMTEAALNQSLDALLSRDLIMKEDYELVSTKPTRTSKVRQLLDTTDIQGEEFAKVIVQKLKDNKQMGLQPYPEILVVSRSPSLNLLQNKSM | binds | 
RIP2CARD (431-540) E453A, HIS-MBP tag cleaved (domain or fragment, human, UniProt O43353 431-540, looked up, RIP2 CARD domain, human, residues 431-540; source: E. coli Rosetta 2, co-purified with NOD2CARDS^s on amylose resin, tags cleaved by proteases; not shown: His, N-terminal, cleaved; MBP, N-terminal, cleaved) LQPGIAQQWIQSKREDIVNQMTAACLNQSLDALLSRDLIMKEDYELVSTKPTRTSKVRQLLDTTDIQGEEFAKVIVQKLKDNKQMGLQPYPEILVVSRSPSLNLLQNKSM | binds | 
RIP2CARD (431-540) T452K, HIS-MBP tag cleaved (domain or fragment, human, UniProt O43353 431-540, looked up, RIP2 CARD domain, human, residues 431-540; also called RIP2CARD-T452K; NOD2CARDS^s-T452K; source: E. coli Rosetta 2, co-purified with NOD2CARDS^s on amylose resin, tags cleaved by proteases; not shown: His, N-terminal, cleaved; MBP, N-terminal, cleaved) LQPGIAQQWIQSKREDIVNQMKEACLNQSLDALLSRDLIMKEDYELVSTKPTRTSKVRQLLDTTDIQGEEFAKVIVQKLKDNKQMGLQPYPEILVVSRSPSLNLLQNKSM | binds | 
RIP2CARD (431-540) C455S, HIS-MBP tag cleaved (domain or fragment, human, UniProt O43353 431-540, looked up, RIP2 CARD domain, human, residues 431-540; also called RIP2CARD-C455S; NOD2CARDS^s-C455S; source: E. coli Rosetta 2, co-purified with NOD2CARDS^s on amylose resin, tags cleaved by proteases; not shown: His, N-terminal, cleaved; MBP, N-terminal, cleaved) LQPGIAQQWIQSKREDIVNQMTEASLNQSLDALLSRDLIMKEDYELVSTKPTRTSKVRQLLDTTDIQGEEFAKVIVQKLKDNKQMGLQPYPEILVVSRSPSLNLLQNKSM | binds | 
RIP2CARD (431-540) T452A, HIS-MBP tag cleaved (domain or fragment, human, UniProt O43353 431-540, looked up, RIP2 CARD domain, human, residues 431-540; source: E. coli Rosetta 2, co-purified with NOD2CARDS^s on amylose resin, tags cleaved by proteases; not shown: His, N-terminal, cleaved; MBP, N-terminal, cleaved) LQPGIAQQWIQSKREDIVNQMAEACLNQSLDALLSRDLIMKEDYELVSTKPTRTSKVRQLLDTTDIQGEEFAKVIVQKLKDNKQMGLQPYPEILVVSRSPSLNLLQNKSM | binds | 

From publication PMC6168553 (Nature Communications, 2018)
